From patent US20140023585A1, “177 LUTETIUM-LABELED BOMBESIN ANALOGS FOR RADIOTHERAPY” (UNIVERSITATSSPITAL BASEL, priority 2010, published 2014) come the findings set out here.

The conditions of series [1]: 37° C., 5% CO2, up to 4 days of incubation. The protocol:
The mixture was incubated in a 5% CO2, 37° C. environment. At different time points, 100-μL aliquots (in triplicate) were removed and treated with 200 μL of EtOH to precipitate serum proteins. Samples were then centrifuged for 15 min at 500 rpm. […] The supernatant was analyzed with HPLC (eluents: A=0.1% trifluoroacetic acid in water and B=acetonitrile; gradient: 0 min 95% of A; 20 minutes 50% of A) to determine the stability of the peptide in serum.

The test system of a further series is PC-3 tumors. Nature of the series: in vivo. The note with it: i.v. The protocol: Biodistribution was investigated in NMRI nude mice bearing subcutaneous PC-3 tumors in the right hind limb at different time-points. Body weight of the male mice was approx. 30 g, 3 animals were investigated per time-point. After injecting an intravenous dose into the tail vein, mice were sacrificed at indicated time points and dissected organs were analyzed by radioactive counting. An administration dose of 100 μL was applied per animal with a mean activity of 86 kBq.
At indicated time points urine and feces were quantitatively collected. At the same time points, animals were sacrificed and exsanguinations under isoflurane anesthesia and the following organs and tissues were removed for measurement of [^177Lu] using the gamma-counter: spleen, liver, gallbladder, kidneys, lung, femur, heart, brain, fat, thyroid, muscle, skin, blood, tail, stomach (without content), prostate, intestine (with content), pancreas, adrenals, and the remaining body (designated as carcass).
Whole organs and tissues or aliquots were weighted and measured in a gamma-counter for radioactivity. In order to get the amount of total radioactivity administered in each animal (=100%) 3 aliquots (100 μL each) of the injected solution were always measured in parallel. The results of the biodistribution and excretion are reported as percent of injected dose per gram of tissue (% ID/g) and percent of injected dose per organ (% ID), respectively. All data are given as mean value±standard deviation, which were calculated by using all animals per time and sample.

Series [2] is described as follows: Toxicity study, same therapy protocol in CD1 mice. It is filed as in vivo. The protocol:
A first therapy study was conducted on 25 nude mice (15-20 g) subcutaneously implanted with PC-3 ([…]). For toxicity study the same therapy protocol was applied to 25 CD1 mice. Thirteen days after implantation the mice were randomly divided in 5 groups and treated as described below: • 1. […] 200 pmol of ^natcompound 2 • 5. PBS

SMILES strings stand for the structures.

On to `CC(C)C[C@H](NC(=O)C[C@H](O)[C@H](CC(C)C)NC(=O)[C@H](Cc1c[nH]cn1)NC(=O)CNC(=O)[C@@H](NC(=O)[C@H](C)NC(=O)[C@H](Cc1c[nH]c2ccccc12)NC(=O)[C@H](CCC(N)=O)NC(=O)[C@@H](Cc1ccccc1)NC(=O)CN1CCC(NC(=O)CN2CCN(CC(=O)O)CCN(CC(=O)O)CCN(CC(=O)O)CC2)CC1)C(C)C)C(N)=O` [compound 2, [^177Lu]-DOTA-4-amino-1-carboxymethylpiperidine-D-Phe-Gln-Trp-Ala-Val-Gly-His-Sta-Leu-NH2, metal not drawn], for which the “stability in human serum” value in series [1] is given as “remarkable stability”. Moreover, in the series with PC-3 tumors (1.0 h p.a.), the “% ID Gallbladder” value stood at 0.000 % ID, the “% ID/g Kidney” value is reported as 1.72 (±0.45) % ID/g and the “% ID/g Tumor” value is recorded as 5.60 (±1.66) % ID/g. Also, the “% ID Gallbladder” value in the series on PC-3 tumors (4.0 h p.a.) stood at 0.000 % ID. For the same molecule, in the series on PC-3 tumors (24.0 h p.a.), the “% ID/g Kidney” value is 0.57 (±0.21) % ID/g, the “% ID/g Liver” value is on record as 0.05 (±0.01) % ID/g and the “% ID/g Tumor” value is given as 6.06 (±1.53) % ID/g. Moreover, the “survival and health of CD1 animals” value in series [2] was “alive and look healthy”. Further, in series [2] (stabilized after 5-6 months), the “body weight of CD1 animals” value is on record as “increased”.
